Source: paper PMC8571072
Several values for one entry are separate records, joined by “and”; a condition that tells them apart may be missing. Equal entries are not always repeated.

Biological target: intelectin-2 (Xenopus laevis (endogenous in egg extract))
Assay: cryo-EM structure

- stoichiometry N: 3 and 6
Substance: intelectin-2 (natural protein)
